The supplement of paper PMC6379048

Experiments:
Assay in all cases: Kd (EC50 corrected by depletion factor)
[1] = target: T1, SRSF3 (UniProt P84103)
T1 sequence: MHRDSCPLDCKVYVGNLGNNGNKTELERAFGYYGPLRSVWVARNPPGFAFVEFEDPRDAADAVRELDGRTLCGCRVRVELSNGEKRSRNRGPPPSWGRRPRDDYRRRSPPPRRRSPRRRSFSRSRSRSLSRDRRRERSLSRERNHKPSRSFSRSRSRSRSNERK
How it was run: (§1)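 HEK293-FT lysate (2.5 mg protein/well) was treated with free RNA oligos (0 nM to 30 μM) for 1 h at 4°C, then with the same oligos on NHS-Sepharose beads for 30 min at 4°C. Bound proteins were quantified by label-free LC-MS/MS relative to the control. EC50 came from a four-parameter log-logistic fit, and Kd is EC50 times a protein-dependent depletion factor.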

[2] = target: T2, CPSF1 (UniProt Q10570)
T2 sequence: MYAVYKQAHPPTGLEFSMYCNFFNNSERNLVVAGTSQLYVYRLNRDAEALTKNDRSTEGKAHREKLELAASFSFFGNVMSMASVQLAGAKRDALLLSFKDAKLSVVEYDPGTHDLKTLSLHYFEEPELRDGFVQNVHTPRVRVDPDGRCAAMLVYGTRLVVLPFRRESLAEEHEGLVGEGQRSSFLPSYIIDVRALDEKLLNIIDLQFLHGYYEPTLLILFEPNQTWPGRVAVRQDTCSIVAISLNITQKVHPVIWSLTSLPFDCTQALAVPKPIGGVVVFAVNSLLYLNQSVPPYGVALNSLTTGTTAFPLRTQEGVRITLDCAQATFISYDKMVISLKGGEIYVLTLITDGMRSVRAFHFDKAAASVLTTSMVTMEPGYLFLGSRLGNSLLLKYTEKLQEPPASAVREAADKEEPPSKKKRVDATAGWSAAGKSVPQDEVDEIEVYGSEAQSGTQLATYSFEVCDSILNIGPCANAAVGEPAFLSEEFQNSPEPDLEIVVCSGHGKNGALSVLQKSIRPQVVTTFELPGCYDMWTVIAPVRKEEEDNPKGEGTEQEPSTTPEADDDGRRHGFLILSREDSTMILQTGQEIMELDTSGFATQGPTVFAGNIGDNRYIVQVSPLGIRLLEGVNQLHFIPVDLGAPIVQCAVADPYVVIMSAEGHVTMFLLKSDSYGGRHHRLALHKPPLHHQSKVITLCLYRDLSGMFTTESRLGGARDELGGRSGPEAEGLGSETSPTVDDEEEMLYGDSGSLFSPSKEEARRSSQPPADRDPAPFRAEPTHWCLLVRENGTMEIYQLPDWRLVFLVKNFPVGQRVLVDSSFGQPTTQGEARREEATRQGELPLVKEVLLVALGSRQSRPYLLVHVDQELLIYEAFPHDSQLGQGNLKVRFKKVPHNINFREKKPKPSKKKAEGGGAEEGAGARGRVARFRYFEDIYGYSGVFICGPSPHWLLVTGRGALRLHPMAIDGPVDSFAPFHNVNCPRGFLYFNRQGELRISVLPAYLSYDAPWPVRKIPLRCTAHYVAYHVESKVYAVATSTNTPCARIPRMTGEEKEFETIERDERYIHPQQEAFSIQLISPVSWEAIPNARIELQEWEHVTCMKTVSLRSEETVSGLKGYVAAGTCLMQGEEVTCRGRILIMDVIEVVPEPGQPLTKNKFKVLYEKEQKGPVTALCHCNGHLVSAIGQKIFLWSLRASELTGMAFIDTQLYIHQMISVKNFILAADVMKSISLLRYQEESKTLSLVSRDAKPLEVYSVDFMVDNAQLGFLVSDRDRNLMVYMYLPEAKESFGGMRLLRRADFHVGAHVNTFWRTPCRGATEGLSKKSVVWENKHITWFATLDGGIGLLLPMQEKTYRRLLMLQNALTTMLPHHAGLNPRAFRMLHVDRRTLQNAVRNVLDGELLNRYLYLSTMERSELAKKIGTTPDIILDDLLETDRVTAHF
How it was run: as §1

[3] = target: T3, RBM4 (UniProt Q9BWF3)
T3 sequence: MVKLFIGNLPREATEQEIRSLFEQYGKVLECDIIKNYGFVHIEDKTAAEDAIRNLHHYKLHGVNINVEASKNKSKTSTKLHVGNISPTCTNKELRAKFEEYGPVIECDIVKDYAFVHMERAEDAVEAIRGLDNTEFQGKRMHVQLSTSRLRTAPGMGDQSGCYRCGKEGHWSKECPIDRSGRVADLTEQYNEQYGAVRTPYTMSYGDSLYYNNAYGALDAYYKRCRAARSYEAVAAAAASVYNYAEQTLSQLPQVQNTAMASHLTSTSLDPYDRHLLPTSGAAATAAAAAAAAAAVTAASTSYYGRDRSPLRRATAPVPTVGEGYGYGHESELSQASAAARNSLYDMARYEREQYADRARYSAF
How it was run: as §1

[4] = target: T4, LSM1 (UniProt O15116)
T4 sequence: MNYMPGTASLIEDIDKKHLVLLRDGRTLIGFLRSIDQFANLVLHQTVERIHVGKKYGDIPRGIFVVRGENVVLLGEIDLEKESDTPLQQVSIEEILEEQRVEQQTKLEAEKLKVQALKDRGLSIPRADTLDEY
How it was run: as §1

[5] = target: ELAVL2 (UniProt Q12926)
Sequence of ELAVL2 (Q12926 whole entry): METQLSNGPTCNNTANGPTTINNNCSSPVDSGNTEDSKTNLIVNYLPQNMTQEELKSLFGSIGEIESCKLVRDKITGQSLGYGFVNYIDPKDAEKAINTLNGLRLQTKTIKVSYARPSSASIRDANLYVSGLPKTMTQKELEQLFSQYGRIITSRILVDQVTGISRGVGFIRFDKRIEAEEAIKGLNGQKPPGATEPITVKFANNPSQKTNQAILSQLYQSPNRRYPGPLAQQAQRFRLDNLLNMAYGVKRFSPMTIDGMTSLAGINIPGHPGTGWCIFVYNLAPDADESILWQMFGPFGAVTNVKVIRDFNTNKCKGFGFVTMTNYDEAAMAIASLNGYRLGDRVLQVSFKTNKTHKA
How it was run: as §1

[6] = target: T5, LSM4 (UniProt Q9Y4Z0)
T5 sequence: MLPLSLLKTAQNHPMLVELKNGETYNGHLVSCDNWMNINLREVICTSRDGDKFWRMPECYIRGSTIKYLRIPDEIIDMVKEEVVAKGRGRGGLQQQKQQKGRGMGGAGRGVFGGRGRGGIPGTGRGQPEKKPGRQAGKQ
How it was run: as §1

| Sequence | Kd [1] | Kd [2] | Kd [3] | Kd [4] | Kd [5] | Kd [6] |
| --- | --- | --- | --- | --- | --- | --- |
| AAUAAA | 281 nM | 6.97 nM | 344 nM | 23.2 nM | 8.83 µM | 70.5 nM |
| CUGUCCU | 790 nM |  | 131 nM |  |  |  |
| UAUUUAU |  | 340 nM |  | 167 nM | 3.67 µM | 241 nM |
